Reference: US20110098224A1, “PROTEIN KINASE C PEPTIDE MODULATORS OF ANGIOGENESIS” (priority 2005, published 2011)

What was measured:
[1] = Topical distribution of radiolabeled TAT peptide after instillation to rabbit eyes; type: in vivo; conditions: rabbit eye
Procedure: Radiolabeled TAT peptide [^14C]-YGXaaRKKRRQRRR (SEQ ID NO:19) (10 μCi) was applied in 5 instillations to each eye (50 μCi total—4 rabbits, 2 eyes each, n=8 eyes, 3 mg total applied to each eye). Each application was 1 hour apart, animals sacrificed 15 minutes after last application. Tissue samples were taken and assayed to determine topical distribution.

[2] = Stability testing of peptide variants (scored); type: physicochemical
From the text: Stability, Miles Assay activity and corneal angiogenesis activities of a number of the peptides were investigated, and scored.

[3] = tested on: primary rat retinal pigment epithelial cells (RPEs); conditions: cited from earlier work
[4] = tested on: VEGF-induced vascular permeability; experiment: Miles assay (Evans Blue dye extravasation after intradermal VEGF with PKC modulator); type: in vivo; conditions: increasing VEGF doses
Procedure: In this study animals were injected intravenously with Evans Blue Dye. Animals were administered VEGF in increasing doses with a PKC modulator intradermally. […] The spots were removed, the dye extracted and quantities were measured spectrophotometrically.
A parent compound, βIV5-3 (SEQ ID NO:6) and a peptide variant—a linear version of the peptide, linear βI, having the sequence […] (SEQ ID NO:18)—were tested in the Miles assay.
The Miles assay was similarly performed with a βIPKC (βIV5-3 (SEQ ID NO:6)) inhibitor, a βIIPKC (βIIV5-3 (SEQ ID NO:8)) inhibitor, a classical ((β-, α-, γPKC) PKC inhibitor (βC2-4 (SEQ ID NO:10), and the scrambled control 1 peptide from Example 2 (SEQ ID NO:12) conjugated to TAT (SEQ ID NO:5).

[5] = tested on: new vessel growth; conditions: rats, given systemically; cited from earlier work

Question: With “[^14C]-YGXaaRKKRRQRRR [Radiolabeled TAT peptide]” as the compound, how does the “Topical distribution, Sclera” value ([1]; 5 instillations 1 hour apart, 3 mg total per eye, 15 minutes after last application) read?
Answer: Its value is 28.4 μ/g tissue.

Question: What about the “Choroid, applied total dose” value ([1]; topical) of the same compound?
Answer: Its value is 0.003%.

Question: What about the “Retina, applied total dose” value ([1]; topical) of the same compound?
Answer: The value was 0.001%.

Question: What about the “Sclera, applied total dose” value ([1]; topical) of the same compound?
Answer: Its value is 0.134%.

Question: And the “Vitreous, applied total dose” value ([1]; topical)?
Answer: The value was 0.006%.

Question: Which Stability testing [2] does the source give for GKLFIMNADGYGRKKRRQRRR [Linear bI (4)] here?
Answer: The Stability testing was “++”.

Question: Which Stability testing [2] does the source give for “GKLFIMNLSGYGRKKRRQRRR (GKLFIMNAGGYGRKKRRQRRR) [bI linear analog]” here?
Answer: Its Stability testing is “++”.

Question: Which Stability testing [2] does the source give for GKLFIMNAGGYGRKKRRQRRR [Linear bI (6)] here?
Answer: The Stability testing was “++”.

Question: Which Stability testing [2] does the source give for “GEEVIRNISGYGRKKRRQRRR [bII linear analog]” here?
Answer: Its Stability testing is “+++”.

Question: For GKLFIMNLGYGRKKRRQRRR [Linear bI (5)], which Stability testing [2] is on record?
Answer: Its Stability testing is “+++”.

Question: With GSLNPEWNETGGYGRKKRRQRRR [linear bC2-4] as the compound, how does the Stability testing [2] read?
Answer: Its Stability testing is “+++”.

Question: For GQEVIRNGGYGRKKRRQRRR [linear bII], which Stability testing [2] is on record?
Answer: The Stability testing was “−”.

Question: Which Stability testing [2] does the source give for GKLFIMNLDGYGRKKRRQRRR [Linear bI (3)] here?
Answer: Its Stability testing is “++”.

Question: Which results are given for `CCCCCCCCCCCCCC(=O)O[C@@H]1[C@@H](C)[C@@]2(O)[C@@H](C=C(CO)C[C@]3(O)C(=O)C(C)=C[C@@H]23)[C@@H]2C(C)(C)[C@]12OC(C)=O` [PMA]?
Answer: PKC-delta level in RPEs ([3]; exposure for 24 hours): significantly down regulated; Secretion of VEGF ([3]; normal or high glucose, or hypoxia, treatment for 24 hours): significantly reduced

Question: Which “VEGF-induced vascular permeability in comparison to vehicle alone” value [4] does the source give for “GKLFIMNGGYGRKKRRQRRR (GKLFIMNLSGYGRKKRRQRRR) [linear bI, a linear version of the peptide βIV5-3]” here?
Answer: The value was “reduced vascular permeability”.

Question: With `Cn1cc(C2=C(c3cn(C4CCN(Cc5ccccn5)CC4)c4ccccc34)C(=O)NC2=O)c2ccccc21` [LY317615] as the compound, how does the new vessel growth [5] read?
Answer: Its new vessel growth is “prevent new vessel growth”.
